Test results reported in patent publication US20220348661A1 (HARBOUR BIOMED SHANGHAI, published 2022).

Biological target: T1, human CD3 (human, UniProt P07766 23-207; P09693 23-182; P04234 22-171; P20963 22-164)
T1 construct: whole, on cells; SP34 is described as an anti-human CD3e antibody; also called human TCR/CD3 complex; CD3 on human pan-T cells
Assay: flow cytometry on human pan-T cells; MFI at 7.4 or 10 µg/ml relative to PR000260
Text: The flow cytometryFACS was used to analyse the binding of the CD3 antibody to CD3-expressing cells, where the CD3-expressing cells could be: CHOK1 cells overexpressing human CD3 or HEK 293 cells (plasmids encoding the ORF of γ, δ, ε, and ζ chains of human-derived CD3 and plasmids encoding the ORF of α and β chains of human TCR were co-transfected with host cells CHOK1 (ATCC, CCL-61) or HEK293 (ATCC, CRL-1573) to construct stable cell lines expressing the structure of the human TCR/CD3 complex); CHOK1 or HEK293 cells overexpressing cynomolgus monkey CD3; human pan-T cells (isolated with the human pan-T cell isolation kit (Miltenyi, #130-096-535) from PBMC); cynomolgus monkey pan-T cells. Specifically, the collected cells were washed twice with PBS containing 2% FBS (FACS buffer), and resuspended with FACS buffer, divided into 96 well plates with 1×10⁵ cells per well, centrifuged at 500 g for 5 minutes. The supernatant was discarded, and 100 μl of pre-gradient diluted CD3 antibody was added, then incubating for 1 hour at room temperature and washing twice with FACS buffer. The cells were resuspended with FACS buffer diluted with secondary antibody Alexa Fluor 488 AffiniPure Goat Anti-Human IgG, Fcγ fragment specific (Jackson ImmunoResearch, #109-545-098), then incubated at room temperature in the dark for 30 minutes. The cells were washed twice with FACS buffer, and resuspended with 200 μl FACS buffer. The fluorescent luminescence signal value were read by flow cytometry (BD FACS CANTOII or ACEA NovoCyte), and the resulted data were processed and analyzed by software FlowJo v10 (FlowJo, LLC). The software GraphPad Prism 8 was used for data processing and graphical analysis, and parameters such as binding curves and EC50 values can be obtained by four-parameter nonlinear fitting.
FIG. 7(A) to (G) show the binding ability of the CD3 antibodies obtained in the Example 4.2 (including PR000260 and its mutants) to human pan-T cells, respectively. The fluorescence intensity MFI of the CD3 antibody binding to human pan-T cells and the relative ratio relative to the initial antibody PR000260 were calculated when the antibody concentration was 7.4 or 10 μg/ml.

T1 sequence (P07766 23-207, chain 1 of 4): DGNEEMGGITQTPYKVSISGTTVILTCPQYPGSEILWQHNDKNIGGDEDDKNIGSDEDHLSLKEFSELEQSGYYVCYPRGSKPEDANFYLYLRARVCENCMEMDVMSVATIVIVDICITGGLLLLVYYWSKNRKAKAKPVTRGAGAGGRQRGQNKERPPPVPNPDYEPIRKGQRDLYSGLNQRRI
T1 sequence (P09693 23-182, chain 2 of 4): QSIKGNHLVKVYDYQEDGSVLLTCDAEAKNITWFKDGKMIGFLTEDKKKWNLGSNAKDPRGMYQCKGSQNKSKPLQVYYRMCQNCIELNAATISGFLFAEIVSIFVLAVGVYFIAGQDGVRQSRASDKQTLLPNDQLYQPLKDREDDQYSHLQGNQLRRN
T1 sequence (P04234 22-171, chain 3 of 4): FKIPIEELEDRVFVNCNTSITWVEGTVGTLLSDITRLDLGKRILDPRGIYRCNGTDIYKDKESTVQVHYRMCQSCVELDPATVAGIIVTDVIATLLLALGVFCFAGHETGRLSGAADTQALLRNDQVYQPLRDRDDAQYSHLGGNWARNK
T1 sequence (P20963 22-164, chain 4 of 4): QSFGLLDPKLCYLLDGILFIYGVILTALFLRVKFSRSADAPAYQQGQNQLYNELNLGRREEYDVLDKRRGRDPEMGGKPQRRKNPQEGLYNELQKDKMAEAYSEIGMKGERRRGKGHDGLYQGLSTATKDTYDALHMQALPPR

Binder | binding result
PR000511 (antibody, human IgG1, lambda, L234A L235A, V domains shown, humanized SP34 variant, IgG1 LALA; also called VH3231/VL7461 IgG) VH: EVQLLESGGGLVQPGGSLRLSCAASGFTFNTYAMNWVRQAPGKGLEWVSRIRSKYNNYATYYADSVKDRFTISRDDSKSTLYLQMNSLRAEDTAVYYCVRHGNFGNSYVSWFAYWGQGTLVTVSS VL: QAVVTQEPSLTVSPGGTVTLTCRSSTGAVTTSNYANWVQQKPGQAPRGLIGGTNKRAPWTPARFSGSLLGDKAALTLLGAQPEDEAEYFCALWYSNLWVFGGGTKLTVLG | binds
PR000513 (antibody, human IgG1, kappa, L234A L235A, V domains shown, humanized SP34 variant, IgG1 LALA; also called VH3231/VK1393 IgG) VH: EVQLLESGGGLVQPGGSLRLSCAASGFTFNTYAMNWVRQAPGKGLEWVSRIRSKYNNYATYYADSVKDRFTISRDDSKSTLYLQMNSLRAEDTAVYYCVRHGNFGNSYVSWFAYWGQGTLVTVSS VL: DAQMTQSPSSLSASVGDRVTITCRSSTGAVTTSNYANWVQQKPGKAPKGLIGGTNKRAPGVPSRFSGSLSGDDATLTISSLQPEDFATYFCALWYSNLWVFGGGTKVEIKR | binds
PR001849 (antibody, human IgG1, lambda, L234A L235A, V domains shown, humanized SP34 variant, IgG1 LALAPG; also called VH3732/VL7461 IgG) VH: EVQLVESGGGLVQPGGSLKLSCAASGFTFSTYAMNWVRQASGKGLEWVGRIRSKYNNYATYYADSVKDRFTISRDDSKSTLYLQMNSLKTEDTAVYYCVRHGNFGNSYVSWFAYWGQGTLVTVSS VL: QAVVTQEPSLTVSPGGTVTLTCRSSTGAVTTSNYANWVQQKPGQAPRGLIGGTNKRAPWTPARFSGSLLGDKAALTLLGAQPEDEAEYFCALWYSNLWVFGGGTKLTVLG | binds
PR002835 (antibody, human IgG1, lambda, L234A L235A, V domains shown, humanized SP34 variant, IgG1 LALAPG; also called VH3236/VL7461 IgG) VH: EVQLLESGGGLVQPGGSLRLSCAASGFTFSTYAMNWVRQAPGKGLEWVSRIRSKYNNYATYYADSVKDRFTISRDNSKSTLYLQMNSLRAEDTAVYYCARHGNFGNSYVSWFAYWGQGTLVTVSS VL: QAVVTQEPSLTVSPGGTVTLTCRSSTGAVTTSNYANWVQQKPGQAPRGLIGGTNKRAPWTPARFSGSLLGDKAALTLLGAQPEDEAEYFCALWYSNLWVFGGGTKLTVLG | binds
PR002836 (antibody, human IgG1, lambda, L234A L235A, V domains shown, humanized SP34 variant, IgG1 LALAPG; also called VH3733/VL7461 IgG) VH: EVQLVESGGGLVQPGGSLKLSCAASGFTFSTYAMNWVRQASGKGLEWVGRIRSKYNNYATYYADSVKDRFTISRDDSKSTLYLQMNSLKTEDTAVYYCTRHGNFGNSYVSWFAYWGQGTLVTVSS VL: QAVVTQEPSLTVSPGGTVTLTCRSSTGAVTTSNYANWVQQKPGQAPRGLIGGTNKRAPWTPARFSGSLLGDKAALTLLGAQPEDEAEYFCALWYSNLWVFGGGTKLTVLG | binds
PR002833 (antibody, human IgG1, lambda, L234A L235A, V domains shown, humanized SP34 variant, IgG1 LALAPG; also called VH3234/VL7461 IgG) VH: EVQLLESGGGLVQPGGSLRLSCAASGFTFSTYAMNWVRQAPGKGLEWVSRIRSKYNNYATYYADSVKDRFTISRDNSKNTLYLQMNSLRAEDTAVYYCVRHGNFGNSYVSWFAYWGQGTLVTVSS VL: QAVVTQEPSLTVSPGGTVTLTCRSSTGAVTTSNYANWVQQKPGQAPRGLIGGTNKRAPWTPARFSGSLLGDKAALTLLGAQPEDEAEYFCALWYSNLWVFGGGTKLTVLG | binds
PR002742 (antibody, human IgG1, lambda, L234A L235A, V domains shown, humanized SP34 variant, IgG1 LALA; also called VH3730/VL7461 IgG) VH: EVQLVESGGGLVQPGGSLKLSCAASGFTFNTYAMNWVRQASGKGLEWVGRIRSKYNNYATYYADSVKDRFTISRDDSKNTAYLQMNSLKTEDTAVYYCTRHGNFGNSYVSWFAYWGQGTLVTVSS VL: QAVVTQEPSLTVSPGGTVTLTCRSSTGAVTTSNYANWVQQKPGQAPRGLIGGTNKRAPWTPARFSGSLLGDKAALTLLGAQPEDEAEYFCALWYSNLWVFGGGTKLTVLG | binds
PR003886 (antibody, human IgG1, lambda, L234A L235A, V domains shown, humanized SP34 variant, IgG1 LALA; also called VH3735/VL7461 IgG) VH: EVQLVESGGGLVQPGGSLKLSCAASGFTFSTYAMNWVRQASGKGLEWVGRIRSKYNNYATYYADSVKDRFTISRDDSKNTAYLQMNSLKTEDTAVYYCTRHGNFGNSYVSWFAYWGQGTLVTVSS VL: QAVVTQEPSLTVSPGGTVTLTCRSSTGAVTTSNYANWVQQKPGQAPRGLIGGTNKRAPWTPARFSGSLLGDKAALTLLGAQPEDEAEYFCALWYSNLWVFGGGTKLTVLG | binds
PR002834 (antibody, human IgG1, lambda, L234A L235A, V domains shown, humanized SP34 variant, IgG1 LALAPG; also called VH3235/VL7461 IgG) VH: EVQLLESGGGLVQPGGSLRLSCAASGFTFSTYAMNWVRQAPGKGLEWVSRIRSKYNNYATYYADSVKDRFTISRDDSKSTLYLQMNSLRAEDTAVYYCAKHGNFGNSYVSWFAYWGQGTLVTVSS VL: QAVVTQEPSLTVSPGGTVTLTCRSSTGAVTTSNYANWVQQKPGQAPRGLIGGTNKRAPWTPARFSGSLLGDKAALTLLGAQPEDEAEYFCALWYSNLWVFGGGTKLTVLG | binds
PR000514 (antibody, human IgG1, kappa, L234A L235A, V domains shown, humanized SP34 variant, IgG1 LALA; also called VH3731/VK1393 IgG) VH: EVQLVESGGGLVQPGGSLKLSCAASGFTFNTYAMNWVRQASGKGLEWVGRIRSKYNNYATYYADSVKDRFTISRDDSKSTLYLQMNSLKTEDTAVYYCVRHGNFGNSYVSWFAYWGQGTLVTVSS VL: DAQMTQSPSSLSASVGDRVTITCRSSTGAVTTSNYANWVQQKPGKAPKGLIGGTNKRAPGVPSRFSGSLSGDDATLTISSLQPEDFATYFCALWYSNLWVFGGGTKVEIKR | binds
PR002837 (antibody, human IgG1, lambda, L234A L235A, V domains shown, humanized SP34 variant, IgG1 LALAPG; also called VH3734/VL7461 IgG) VH: EVQLVESGGGLVQPGGSLKLSCAASGFTFSTYAMNWVRQASGKGLEWVGRIRSKYNNYATYYADSVKDRFTISRDDSKNTAYLQMNSLKTEDTAVYYCVRHGNFGNSYVSWFAYWGQGTLVTVSS VL: QAVVTQEPSLTVSPGGTVTLTCRSSTGAVTTSNYANWVQQKPGQAPRGLIGGTNKRAPWTPARFSGSLLGDKAALTLLGAQPEDEAEYFCALWYSNLWVFGGGTKLTVLG | binds
PR004616 (antibody, human IgG1, lambda, L234A L235A, V domains shown, humanized SP34 variant, IgG1 LALA; also called VH3233/VL7461 IgG) VH: EVQLLESGGGLVQPGGSLRLSCAASGFTFSTYAMNWVRQAPGKGLEWVSRIRSKYNNYATYYADSVKDRFTISRDNSKNTLYLQMNSLRAEDTAVYYCAKHGNFGNSYVSWFAYWGQGTLVTVSS VL: QAVVTQEPSLTVSPGGTVTLTCRSSTGAVTTSNYANWVQQKPGQAPRGLIGGTNKRAPWTPARFSGSLLGDKAALTLLGAQPEDEAEYFCALWYSNLWVFGGGTKLTVLG | binds
PR001848 (antibody, human IgG1, lambda, L234A L235A, V domains shown, humanized SP34 variant, IgG1 LALAPG; also called VH3232/VL7461 IgG) VH: EVQLLESGGGLVQPGGSLRLSCAASGFTFSTYAMNWVRQAPGKGLEWVSRIRSKYNNYATYYADSVKDRFTISRDDSKSTLYLQMNSLRAEDTAVYYCVRHGNFGNSYVSWFAYWGQGTLVTVSS VL: QAVVTQEPSLTVSPGGTVTLTCRSSTGAVTTSNYANWVQQKPGQAPRGLIGGTNKRAPWTPARFSGSLLGDKAALTLLGAQPEDEAEYFCALWYSNLWVFGGGTKLTVLG | binds
PR002469 (antibody, human IgG1, lambda, L234A L235A, V domains shown, humanized SP34 variant, IgG1 LALA; also called VH3230/VL7461 IgG) VH: EVQLLESGGGLVQPGGSLRLSCAASGFTFNTYAMNWVRQAPGKGLEWVSRIRSKYNNYATYYADSVKDRFTISRDNSKNTLYLQMNSLRAEDTAVYYCAKHGNFGNSYVSWFAYWGQGTLVTVSS VL: QAVVTQEPSLTVSPGGTVTLTCRSSTGAVTTSNYANWVQQKPGQAPRGLIGGTNKRAPWTPARFSGSLLGDKAALTLLGAQPEDEAEYFCALWYSNLWVFGGGTKLTVLG | binds
PR000512 (antibody, human IgG1, lambda, L234A L235A, V domains shown, humanized SP34 variant, IgG1 LALA; also called VH3731/VL7461 IgG) VH: EVQLVESGGGLVQPGGSLKLSCAASGFTFNTYAMNWVRQASGKGLEWVGRIRSKYNNYATYYADSVKDRFTISRDDSKSTLYLQMNSLKTEDTAVYYCVRHGNFGNSYVSWFAYWGQGTLVTVSS VL: QAVVTQEPSLTVSPGGTVTLTCRSSTGAVTTSNYANWVQQKPGQAPRGLIGGTNKRAPWTPARFSGSLLGDKAALTLLGAQPEDEAEYFCALWYSNLWVFGGGTKLTVLG | binds
